Results reported in US12559863B2, “Macrocyclic modulators of disease associated protein misfolding and aggregation” (RESQ BIOTECH, priority 2017, dated 2026).

Target: T1, Aβ42-GFP (Homo sapiens, UniProt P05067)
T1 construct: a chimeric fusion of the human Aβ(1-42) peptide (Aβ42) with GFP; expressed in transfected cells; host or cells: E. coli BL21(DE3)
Experiment: High-throughput sequencing of pSICLOPPS vectors isolated after bacterial sorting for enhanced Aβ42-GFP fluorescence
Settings: for Reads/Total TXXXR reads (%): relative to total TXXXR reads; for Reads/Total pentapeptide reads (%): relative to total pentapeptide reads; for Normalized read number (%): Table 3, cyclo-TXXR tetrapeptides
Excerpt: On the other hand, very few bioactive sequences resembling AβC5-34 should exist. […] The peptide-encoding vectors contained in these clones were isolated and the peptide-encoding region of approximately 5.6 million of these plasmids was sequenced using an Ion Torrent high-throughput sequencing platform. […] First, pentapeptides were the dominant peptide species within the sorted pool (FIG. 12D), in agreement with previous observations (FIG. 8G). Second, the most prevalent motif among the selected pentapeptide sequences were TXXXR pentapeptides (˜47% of the selected pentapeptide-encoding pSICLOPPS plasmids; ˜42% of the unique selected pentapeptide sequences) (Table 1), in accordance with previous observations (FIG. 8G). […] At position 2, Thr, Ala, and Val were preferred, while aromatic residues (Phe, Trp, Tyr) were completely excluded from the selected TXXXR peptide pool, in full agreement with our site-directed mutagenesis studies. At the highly variable position 3, the complete absence of the negatively charged amino acids Glu and Asp among the selected sequences was notable (FIG. 12E). […] It is noteworthy, that Lys and Gln residues were practically absent from all positions, while the β sheet-breaking amino acid Pro that is typically included in designed peptide-based inhibitors of amyloid aggregation appeared with strikingly low frequencies (FIG. 12E).
Electrocompetent E. coli BL21(DE3) cells (Novagen, USA) carrying either the expression vector pETSOD1(A4V)-GFP, which produces SOD1(A4V)-GFP under control of the strong bacteriophage T7 promoter, or pETAβ42-GFP, which produces Aβ42-GFP under control of the T7 promoter, were co-transformed with the combined pSICLOPPS-NuX1X2X3-X5 vector library. Approximately 10^8 transformants carrying both the vector library and either pETSOD1(A4V)-GFP or pETAβ42-GFP vectors were harvested, pooled together, and grown in Luria-Bertani (LB) liquid medium containing either 0.005% (pETSOD1(A4F)-GFP) or 0.002% (pETAβ42-GFP) L-arabinose—the inducer of cyclic peptide production—at 37° C. with shaking. When the optical density at 600 nm (OD600) of the bacterial culture was about 0.5, 0.01 (pETSOD1(A4F)-GFP) or 0.1 (pETAβ42-GFP) mM isopropyl-β-D-thiogalactoside (IPTG) was added to the medium to induce overexpression of the reporter. […] The isolated cells were re-grown and screened for additional rounds in an identical manner until the desired enrichment in high-fluorescence clones was achieved.
For the characterization of the initial libraries, a combined pSICLOPPS-NuX1X2X3-X5 vector library was prepared containing approximately equal amounts of each one of the tetra-, penta- and hexapeptide sub-libraries. These samples were digested with NcoI and BsrGI and the resulting ˜250 bp product that contained the variable peptide-encoding region was isolated. High-throughput sequencing analysis was performed using an Ion Torrent high-throughput sequencing platform. From the obtained data, all the sequences with mismatches outside of the variable peptide-encoding region were removed, and only the 12-, 15- or 18-bp-long peptide-encoding sequences were subjected to further analysis. The libraries of the selected cyclic peptides that enhance either SOD1(A4V)-GFP or Aβ42-GFP fluorescence were sequenced in a similar manner, with the only exception being that all sequences including stop codons were discarded from subsequent analysis.

[1] = after the second round of bacterial sorting
[2] = after the second round of bacterial sorting, relative to total peptide reads
[3] = high-throughput sequencing of isolated pSICLOPPS-NuX1X2X3-X5 vectors after the second round of bacterial sorting for enhanced Aβ42-GFP fluorescence, selected cyclo-TXXXR pentapeptides
[4] = Table 4, hexapeptides, after second round of sorting
[5] = after the second round of bacterial sorting for enhanced Aβ42-GFP fluorescence
[6] = after the second round of bacterial sorting for enhanced Aβ42-GFP fluorescence, relative to total peptide reads
[7] = pSICLOPPS-NuX1X2X3-X5 vectors after the second round of bacterial sorting for enhanced Aβ42-GFP fluorescence

Substance | Reads/Total TXXXR reads (%) [1] | Reads/Total pentapeptide reads (%) [1] | Reads/Total peptide reads (%) [2] | Number of reads [3] | also measured
AβC5-190 (TLCLR; cyclic) | 0.039% | 0.018% | 0.016% | 739 | 
AβC5-162 (TSVWR; cyclic) | 0.058% | 0.027% | 0.024% | 1,094 | 
TPAWLD [AβC6-79] |  |  |  |  | Reads/Total hexapeptide reads (%) (Table 4): 0.012%; Reads/Total peptide reads (%) (Table 4): 0.001%; Number of reads [4]: 55
TLLIRW [AβC6-8] |  |  |  |  | Reads/Total hexapeptide reads (%) (Table 4): 2.902%; Reads/Total peptide reads (%) (Table 4): 0.290%; Number of reads [4]: 13,135
AβC5-410 (TVLGR; cyclic pentapeptide) |  |  |  |  | Reads/Total TXXXR reads (%) [5]: 0.004%; Reads/Total pentapeptide reads (%) [5]: 0.002%; Reads/Total peptide reads (%) [6]: 0.002%; Number of reads [7]: 76
TLHWFE [AβC6-26] |  |  |  |  | Reads/Total hexapeptide reads (%) (Table 4): 0.143%; Reads/Total peptide reads (%) (Table 4): 0.014%; Number of reads [4]: 647
AβC5-393 (TTGRR; head-to-tail cyclic) |  |  |  |  | Reads/Total TXXXR reads (%) [5]: 0.005%; Reads/Total pentapeptide reads (%) [5]: 0.002%; Reads/Total peptide reads (%) [6]: 0.002%; Number of reads [7]: 87
AβC5-365 (TTGGR; head-to-tail cyclic) | 0.006% | 0.003% | 0.002% | 106 | 
AβC5-472 (TMYAR; cyclic pentapeptide) |  |  |  |  | Reads/Total TXXXR reads (%) [5]: 0.003%; Reads/Total pentapeptide reads (%) [5]: 0.001%; Reads/Total peptide reads (%) [6]: 0.001%; Number of reads [7]: 51
AβC5-66 (TTHWR; cyclic pentapeptide) | 0.752% | 0.352% | 0.316% | 14,304 | 
AβC5-329 (TTVRR; head-to-tail cyclic) | 0.007% | 0.003% | 0.003% | 141 | 
AβC5-262 (TTSSR; cyclic) | 0.015% | 0.007% | 0.006% | 286 | 
AβC5-263 (THLAR; cyclic) | 0.015% | 0.007% | 0.006% | 284 | 
AβC5-434 (TTSGR; cyclic pentapeptide) |  |  |  |  | Reads/Total TXXXR reads (%) [5]: 0.003%; Reads/Total pentapeptide reads (%) [5]: 0.002%; Reads/Total peptide reads (%) [6]: 0.001%; Number of reads [7]: 65
AβC5-396 (TTTPR; head-to-tail cyclic) |  |  |  |  | Reads/Total TXXXR reads (%) [5]: 0.004%; Reads/Total pentapeptide reads (%) [5]: 0.002%; Reads/Total peptide reads (%) [6]: 0.002%; Number of reads [7]: 84
TPALFD [AβC6-68] |  |  |  |  | Reads/Total hexapeptide reads (%) (Table 4): 0.022%; Reads/Total peptide reads (%) (Table 4): 0.002%; Number of reads [4]: 101
TLSWFN [AβC6-59] |  |  |  |  | Reads/Total hexapeptide reads (%) (Table 4): 0.031%; Reads/Total peptide reads (%) (Table 4): 0.003%; Number of reads [4]: 141
cyclo-TTCR (cyclic) [AβC4-9] |  |  |  |  | Normalized read number (%): 1.248%
AβC5-22 (TVLWR; cyclic) | 1.883% | 0.882% | 0.791% | 35,820 | 
TLKWLN [AβC6-10] |  |  |  |  | Reads/Total hexapeptide reads (%) (Table 4): 2.434%; Reads/Total peptide reads (%) (Table 4): 0.243%; Number of reads [4]: 11,016
AβC5-375 (TNLAR; head-to-tail cyclic) | 0.005% | 0.002% | 0.002% | 97 | 

Substance | Reads/Total TXXXR reads (%) [1] | Reads/Total pentapeptide reads (%) [1] | Reads/Total peptide reads (%) [2] | Number of reads [3] | also measured
TPGLVD [AβC6-58] |  |  |  |  | Reads/Total hexapeptide reads (%) (Table 4): 0.031%; Reads/Total peptide reads (%) (Table 4): 0.003%; Number of reads [4]: 142
AβC5-344 (TTPGR; head-to-tail cyclic) | 0.007% | 0.003% | 0.003% | 125 | 
AβC5-304 (TSINR; cyclic) | 0.010% | 0.004% | 0.004% | 182 | 
AβC5-17 (TTTAR; cyclic) | 2.110% | 0.989% | 0.886% | 40,135 | 
AβC5-479 (TTTVR; cyclic pentapeptide) |  |  |  |  | Reads/Total TXXXR reads (%) [5]: 0.003%; Reads/Total pentapeptide reads (%) [5]: 0.001%; Reads/Total peptide reads (%) [6]: 0.001%; Number of reads [7]: 50
TPCWFD [AβC6-46] |  |  |  |  | Reads/Total hexapeptide reads (%) (Table 4): 0.056%; Reads/Total peptide reads (%) (Table 4): 0.006%; Number of reads [4]: 252
AβC5-449 (TANAR; cyclic pentapeptide) |  |  |  |  | Reads/Total TXXXR reads (%) [5]: 0.003%; Reads/Total pentapeptide reads (%) [5]: 0.001%; Reads/Total peptide reads (%) [6]: 0.001%; Number of reads [7]: 58
TLEFFD [AβC6-4] |  |  |  |  | Reads/Total hexapeptide reads (%) (Table 4): 5.978%; Reads/Total peptide reads (%) (Table 4): 0.597%; Number of reads [4]: 27,057
AβC5-378 (TTTGR; head-to-tail cyclic) | 0.005% | 0.002% | 0.002% | 96 | 
TKEYFD [AβC6-21] |  |  |  |  | Reads/Total hexapeptide reads (%) (Table 4): 0.272%; Reads/Total peptide reads (%) (Table 4): 0.027%; Number of reads [4]: 1,231
AβC5-53 (TTVWR; cyclic pentapeptide) | 0.982% | 0.460% | 0.412% | 18,669 | 
TPGWFD [AβC6-55] |  |  |  |  | Reads/Total hexapeptide reads (%) (Table 4): 0.040%; Reads/Total peptide reads (%) (Table 4): 0.004%; Number of reads [4]: 180
AβC5-316 (TTCAR; head-to-tail cyclic) | 0.008% | 0.004% | 0.003% | 157 | 
AβC5-26 (TAWCR; cyclic) | 1.493% | 0.699% | 0.627% | 28,391 | 
AβC5-278 (TTWLR; cyclic) | 0.013% | 0.006% | 0.005% | 241 | 
AβC5-343 (TNLDR; head-to-tail cyclic) | 0.007% | 0.003% | 0.003% | 125 | 
cyclo-TLWR (cyclic) [AβC4B-80] |  |  |  |  | Normalized read number (%): 0.2568%
AβC5-362 (TTWDR; head-to-tail cyclic) | 0.006% | 0.003% | 0.002% | 107 | 
AβC5-381 (TTHTR; head-to-tail cyclic) | 0.005% | 0.002% | 0.002% | 93 | 
AβC5-348 (TTLTR; head-to-tail cyclic) | 0.006% | 0.003% | 0.003% | 119 | 
